Results published in PMC5282649, “Binding site of restriction-modification system controller protein in Mollicutes”.

Columns and labels:
MraZ [1] = biological target: T1, MraZ (UniProt Q7NB78 1-142); assay: EMSA; strength comparable to own site; 20 mM Tris-HCl pH 7.5, 100 mM KCl, 6% glycerol, 15 min at 37 °C; 20 pmol protein with 10 pmol dsDNA; 6% acrylamide gel, TB buffer pH 8.3, 10 °C, EtBr stain; conditions: protein: recombinant; chain copies: 8
T1 sequence: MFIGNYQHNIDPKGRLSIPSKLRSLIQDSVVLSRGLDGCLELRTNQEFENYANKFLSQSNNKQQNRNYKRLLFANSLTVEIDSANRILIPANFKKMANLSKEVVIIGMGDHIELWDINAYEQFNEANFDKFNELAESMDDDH

[2] = biological target: T2, HsdC (controller protein of type I RM-system) (Mycoplasma gallisepticum S6, UniProt A0A0F6CKR7 1-64); assay: EMSA titration; printed as binding constant; 20 mM Tris-HCl pH 7.5, 100 mM KCl, 6% glycerol, 15 min at 37 °C; 20 pmol protein with 10 pmol dsDNA; 6% acrylamide gel, TB buffer pH 8.3, 10 °C, EtBr stain; conditions: protein: recombinant; tags: C-terminal His-tag (pETm); chain copies: 2
[3] = biological target: T2, HsdC (controller protein of type I …); assay: EMSA; similar or slightly weaker than PhsdC; 20 mM Tris-HCl pH 7.5, 100 mM KCl, 6% glycerol, 15 min at 37 °C; 20 pmol protein with 10 pmol dsDNA; 6% acrylamide gel, TB buffer pH 8.3, 10 °C, EtBr stain; conditions: protein: recombinant; tags: C-terminal His-tag (pETm); chain copies: 2
MraZ [4] = biological target: T1, MraZ; assay: EMSA; control; 20 mM Tris-HCl pH 7.5, 100 mM KCl, 6% glycerol, 15 min at 37 °C; 20 pmol protein with 10 pmol dsDNA; 6% acrylamide gel, TB buffer pH 8.3, 10 °C, EtBr stain; conditions: protein: recombinant; chain copies: 8

B1: PhsdC-WT (dsDNA)
DNA 1: TTATCGGCTTTGTGTTAAAATAGTGTTAACGATTTTGAAG
DNA 2: CTTCAAAATCGTTAACACTATTTTAACACAAAGCCGATAA
B1 was tested, and the binding result (MraZ [1]) was “binds” and the Kd [2] was about 5 nM.

B2: PclpB (dsDNA)
DNA 1: TAATAGCCTAAGTGCTAATTTTTTGTTATAATAAATCTAT
DNA 2: ATAGATTTATTATAACAAAAAATTAGCACTTAGGCTATTA
B2: binds [3].

B3: PtrnM (dsDNA)
DNA 1: ATTGTTATTATATGATAATAATGTGTAACACATCGCGGGA
DNA 2: TCCCGCGATGTGTTACACATTATTATCATATAATAACAAT
B3: binds [3].

B4: PmraZ (dsDNA)
DNA 1: AATTCAAAAGTGTTAAAAAGTGTGAGAAAGTGGGAAAAAT
DNA 2: ATTTTTCCCACTTTCTCACACTTTTTAACACTTTTGAATT
B4: binds (MraZ [4]).
